This is an account of results in patent publication US20260184794A1 (MOMENTA PHARMACEUTICALS, published 2026).

Substitutions are numbered along the chain they refer to.

In assay [1] the target is T1, recombinant human α11β1 (human, UniProt Q9UKX5 23-1141; P05556 21-728, limits assumed).
T1 construct: HIS-tagged heterodimer captured by anti-HIS antibody in SPR; also called HIS-tagged human α11β1; soluble human α11β1
The assay can be described thus: SPR (Biacore T200), HIS-tagged human α11β1 captured by anti-HIS, antibody injected, single cycle kinetics, 1:1 model. How it is done:
The affinity of antibodies for human α11β1 was measured by surface plasm on resonance assay (SPR). Affinity was measured at pH 7.6 and 25° C. with a Biacore T200 instrument. Anti-HIS antibody was immobilized on the SPR sensor surface using EDC/NHS covalent attachment. HIS-tagged human α11β1 was captured on the sensor surface and a single cycle kinetics assay was used. Increasing concentrations of test antibody were injected in series over the sensor-bound α11β1. Dissociation was monitored for 1000 seconds. A sensor surface with only anti-HIS antibody and a series of blank injections were used to double-reference subtract the data. A 1:1 Langmuir model was fit to the data to estimate the kinetic association and dissociation constants. The affinity (equilibrium dissociation constant) of the interaction was calculated by dividing the kinetic dissociation constant by the kinetic association constant. Between injection cycles α11β1 and bound antibody were removed with an injection of 10 mM glycine at pH 1.5.
Background: SPR reads the build-up and loss of mass on a sensor chip optically.

For assay [2], the target named is T2, α11β1 on human pulmonary myofibroblasts (human, UniProt Q9UKX5 23-1188; P05556 21-798).
T2 construct: whole, on cells; The cells are not transfected; also called HPF/MF
The assay can be described thus: flow cytometry on TGFβ1-treated human pulmonary fibroblasts (myofibroblasts). How it is done: (§1) Human Pulmonary Fibroblasts (ScienCell) were cultured in complete Fibroblast Growth Medium (ScienCell) until 80% confluent in T-150 flasks. Cells were washed and harvested using Accutase. Cells were seeded into T-150 flasks at 7,500 cells/cm² in complete FGF and cultured for 72 hours. Cells were then washed and starved in serum reduced medium for 24 hours. After starvation, cells were treated with TGFβ1 (R&D Systems) for 72 hours. Cells were harvested using Accutase and seeded in 96-well conical bottom plates. Cells were blocked with Heat Inactived Fetal Bovine Serum (Gibco) for 30 minutes at 4° C. Cells were then incubated with anti-al I antibodies at the doses described in each figure for 30 minutes at 4° C. A human anti-al I antibody (Creative BioLabs) was included as a positive control as well as the appropriate IgG isotype negative controls. Cells were washed twice and incubated with PE conjugated secondary antibodies specific to the IgG class of the anti-α11 antibodies being tested for 30 minutes at 4° C. Cells were washed twice and fixed in 1% PF A for 30 minutes. Cells were acquired on a FACS Verse […]. Data were analyzed by gating on single cells and determining the geometric Mean Fluorescence Intensity (gMFI) in the PE channel for each sample.
In general terms: Flow cytometry measures light scatter and fluorescence of single cells or particles in a stream.
Target sequence in this assay (P05556 21-798, one chain of several): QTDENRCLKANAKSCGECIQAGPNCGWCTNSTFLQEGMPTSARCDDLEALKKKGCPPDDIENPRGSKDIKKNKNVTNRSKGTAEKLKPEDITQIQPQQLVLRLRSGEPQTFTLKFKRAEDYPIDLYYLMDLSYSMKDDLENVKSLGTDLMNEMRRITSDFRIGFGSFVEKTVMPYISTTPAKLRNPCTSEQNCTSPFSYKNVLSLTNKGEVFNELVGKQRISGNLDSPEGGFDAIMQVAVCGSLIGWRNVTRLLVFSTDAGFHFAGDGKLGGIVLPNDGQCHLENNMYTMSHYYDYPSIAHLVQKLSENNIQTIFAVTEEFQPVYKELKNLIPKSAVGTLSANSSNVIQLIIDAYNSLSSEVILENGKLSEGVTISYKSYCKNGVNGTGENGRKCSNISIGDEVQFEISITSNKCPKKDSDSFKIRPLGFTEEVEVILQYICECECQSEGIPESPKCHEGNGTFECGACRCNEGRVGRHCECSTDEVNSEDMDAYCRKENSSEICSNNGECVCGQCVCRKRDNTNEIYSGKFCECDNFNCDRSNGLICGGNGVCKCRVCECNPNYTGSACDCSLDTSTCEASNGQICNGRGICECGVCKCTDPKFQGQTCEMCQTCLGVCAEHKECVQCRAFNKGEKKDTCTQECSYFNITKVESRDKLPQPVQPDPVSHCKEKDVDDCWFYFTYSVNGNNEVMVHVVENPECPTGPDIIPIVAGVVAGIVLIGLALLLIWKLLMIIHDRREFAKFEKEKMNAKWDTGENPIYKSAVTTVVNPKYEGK

Assay [3] deals with T3, human α11 expressed on CHO-K1 cells (human, UniProt Q9UKX5 23-1188).
T3 sequence (Q9UKX5 whole entry, looked up): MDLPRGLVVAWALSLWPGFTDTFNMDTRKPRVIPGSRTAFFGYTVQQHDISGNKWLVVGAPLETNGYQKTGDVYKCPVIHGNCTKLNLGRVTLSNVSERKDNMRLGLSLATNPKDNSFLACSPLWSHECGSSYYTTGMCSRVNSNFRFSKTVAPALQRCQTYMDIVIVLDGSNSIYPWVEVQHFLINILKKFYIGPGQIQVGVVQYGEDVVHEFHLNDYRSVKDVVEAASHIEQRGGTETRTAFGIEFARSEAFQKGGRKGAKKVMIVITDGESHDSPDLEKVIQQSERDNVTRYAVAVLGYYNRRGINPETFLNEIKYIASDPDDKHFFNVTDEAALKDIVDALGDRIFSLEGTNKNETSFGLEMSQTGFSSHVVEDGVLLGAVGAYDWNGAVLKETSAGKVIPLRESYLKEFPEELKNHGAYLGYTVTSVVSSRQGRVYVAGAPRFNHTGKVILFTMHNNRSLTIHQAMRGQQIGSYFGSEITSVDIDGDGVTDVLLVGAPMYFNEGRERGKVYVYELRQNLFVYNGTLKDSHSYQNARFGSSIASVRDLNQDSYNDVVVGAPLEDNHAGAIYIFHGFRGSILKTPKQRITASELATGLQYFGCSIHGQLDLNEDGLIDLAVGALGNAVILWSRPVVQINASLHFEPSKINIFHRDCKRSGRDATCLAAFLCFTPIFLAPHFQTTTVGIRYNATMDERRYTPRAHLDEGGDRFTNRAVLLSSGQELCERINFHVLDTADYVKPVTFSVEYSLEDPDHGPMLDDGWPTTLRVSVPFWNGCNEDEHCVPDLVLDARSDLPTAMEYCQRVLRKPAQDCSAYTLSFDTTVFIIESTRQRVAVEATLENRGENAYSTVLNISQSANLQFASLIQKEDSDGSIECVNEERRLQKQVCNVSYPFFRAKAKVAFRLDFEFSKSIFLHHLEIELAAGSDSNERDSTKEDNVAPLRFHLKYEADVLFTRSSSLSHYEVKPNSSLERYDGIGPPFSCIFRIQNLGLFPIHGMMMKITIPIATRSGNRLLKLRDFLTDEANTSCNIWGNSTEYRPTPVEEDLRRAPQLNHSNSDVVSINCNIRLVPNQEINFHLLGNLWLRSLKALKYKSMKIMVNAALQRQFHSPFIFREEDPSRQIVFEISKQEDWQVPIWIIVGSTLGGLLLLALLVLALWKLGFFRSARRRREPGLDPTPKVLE
The assay can be described thus: cell-based or functional assay.

The target in assay [4] is T3, human α11 expressed on CHO-K1 cells. The assay can be described thus: flow cytometry on CHO cells expressing human α11 (CHO-α11β1 binding). How it is done: (§2) 200,000 cells (wild-type CHO-K1 cells or CHO-K1 cells expressing human α11) were incubated with each antibody at desired concentrations in FACS buffer for 30 min at 4° C. Then, the cells were washed with FACS buffer and incubated with secondary antibody at 1:100 dilution for 30 minutes at 4° C. Cells were then washed and fixed with 1% PF A in PBS for 20 minutes at room temperature; washed again and read on a cytometer in FACS buffer.

The target is the same in assay [5]. The assay can be described thus: cell-based or functional assay. The source holds these as a separate data set.
Assay [6] deals with T2, α11β1 on human pulmonary myofibroblasts. Description: flow cytometry on human pulmonary myofibroblasts (title: Myofibroblast Binding); MFI against Log [µg/ml]. As to the method:
as §1
Target sequence in this assay (P05556 21-798, chain 2 of 2, one chain of several): as the sequence (P05556 21-798, one chain of several) above

In assay [7] the target is T3, human α11 expressed on CHO-K1 cells. Description: flow cytometry on CHO-K1 cells expressing human α11 (title: CHO-hu α11 Binding); MFI against Log [µg/ml]. As to the method: as §2

T1 sequence (P05556 21-728 limits assumed, chain 2 of 2, one chain of several): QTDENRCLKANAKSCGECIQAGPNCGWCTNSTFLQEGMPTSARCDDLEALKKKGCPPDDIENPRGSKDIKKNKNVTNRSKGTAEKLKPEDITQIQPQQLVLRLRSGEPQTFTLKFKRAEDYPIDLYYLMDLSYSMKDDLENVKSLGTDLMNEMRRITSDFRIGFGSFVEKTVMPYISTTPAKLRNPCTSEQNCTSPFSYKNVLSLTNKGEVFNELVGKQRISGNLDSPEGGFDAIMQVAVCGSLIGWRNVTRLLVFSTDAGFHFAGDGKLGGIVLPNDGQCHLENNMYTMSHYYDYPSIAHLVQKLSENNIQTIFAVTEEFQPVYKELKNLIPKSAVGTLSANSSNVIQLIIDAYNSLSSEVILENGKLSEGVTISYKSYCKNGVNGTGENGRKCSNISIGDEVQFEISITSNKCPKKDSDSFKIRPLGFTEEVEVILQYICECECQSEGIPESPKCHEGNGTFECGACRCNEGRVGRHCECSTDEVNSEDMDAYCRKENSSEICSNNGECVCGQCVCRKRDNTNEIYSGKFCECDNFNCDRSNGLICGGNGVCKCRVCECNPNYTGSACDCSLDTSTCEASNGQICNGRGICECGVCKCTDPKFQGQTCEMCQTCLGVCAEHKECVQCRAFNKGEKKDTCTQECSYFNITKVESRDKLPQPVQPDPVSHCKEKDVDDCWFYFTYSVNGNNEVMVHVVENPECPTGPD

B1: 16E10 (antibody, V domains shown)
VH: QSLEESGGDLVKPGASLTLTCRVSGFSFSSSYYMCWVRQAPGKGLEWIACIGTTRGSTYYATWAKGRFTISKISSTTVTLQMTSLTDADTATYFCARDATGYRINTIGLYFNLWGPGTLVTVSS
VL: ELTQTPSSVEAAVGGTPTIKCQASQTIYSYLSWYQQKPGQPPKLLIYEASKLASGVPSRFSGSGSGTDYTLTISDLECADAATYYCQSYHGTASTEYNTFGGGTEVVVK
The term Kd denotes a measure of binding affinity in units of concentration. What is called EC50 is the concentration needed to bring the measured effect to its halfway point. High values mean lower potency in that assay, low ones higher potency in that assay. B1: the Kd in assay [1] worked out at 0.048 nM. For the same molecule, the EC50 in assay [2] amounted to 0.35 nM; in assay [4], 0.3 nM. In addition, the “CHO-hu α11 adhesion inhibition (IC50)” value in assay [3] is 0.39 nM.

B2: 1994-01-C7 variant 54 (antibody, V domains shown)
VH: QVQLVQSGAEVKKPGASVKVSCKASGYTFTSYGISWVRQAPGQGLEWMGWISAYNANTNYAQKLQGRVTMTTDTSTSTAYMELRSLRSDDTAAYYCARVTGITGTTIGPWGQGTMVTVSS
VL: DIQMTQSPSSLSASVGDRVTITCRASQSISSYLNWYQQKPGKAPKLLIYDASSLESGVPSRFSGSGSGTEFTLTISSLQPDDFAVYYCQQYNNWPQTFGQGTKVEIK
A word on the EC50 (read off the curve): it is the concentration at which the effect is half-maximal. A higher EC50 (read off the curve) goes with a need for much substance. For B2, the “IC50 (read off the curve), inhibition of cell adhesion to type I collagen” value (“IC50 (read off the curve), inhibition” below) in assay [5] is approximately 0.6 µg/mL. In addition, the half-maximal effective concentration (EC50 (read off the curve)) in assay [6] is approximately 0.4 µg/mL.

B3: 1994-01-C7 (antibody, V domains shown)
VH: B2 VH with A56G, G108D
VL: B2 VL
notes: Fully human, from phage display (scFv converted to IgG); also called 1994-01-C7 (#9); 1994-01-C07
As to B3, the Kd in assay [1] was determined as 0.24 nM. Also, the entries for the “EC50 (read off the curve)” value in assay [7] and in assay [6] were approximately 0.4 µg/mL and approximately 0.5 µg/mL, respectively. For the same molecule, the half-maximal effective concentration (EC50) in assay [2] and in assay [4] was 3.5 nM in each case. For the same molecule, in assay [3], the “CHO-hu α11 adhesion inhibition (IC50)” value was determined as 3.3 nM. Besides, the “IC50 (read off the curve), inhibition” value in assay [5] was approximately 0.5 µg/mL.

B4: 1994-01-C7 variant 58 (antibody, V domains shown)
VH: B2 VH with T58V
VL: B2 VL
Turning to B4, the “IC50 (read off the curve), inhibition” value in assay [5] is approximately 0.5 µg/mL. For the same molecule, the concentration giving a half-maximal response (EC50 (read off the curve)) in assay [6] was approximately 0.4 µg/mL.

B5: 1994-01-C7 variant 60 (antibody, V domains shown)
VH: B2 VH with A56S
VL: B2 VL
In the case of B5, the 50% effective concentration (EC50 (read off the curve)) in assay [7] is approximately 0.8 µg/mL; in assay [6], approximately 0.6 µg/mL. The “IC50 (read off the curve), inhibition” value in assay [5] is approximately 0.6 µg/mL.

B6: 79E3E3 (antibody, V domains shown)
VH: QIQLVQSGPEVKKPGESVKISCKASGYTFTDYAMNWVKQAPGNGLKWMGWINTQTGKPTYADDFKQRFVFSLETSARTTYLQINNLNIEDTATYFCTRLGTGNTKGFAYWGQGTLVTVSS
VL: DILINQSPASLTVSAGERVTMSCKSSQSLLYSENNQDYLAWYQQKPGQFPKLLIYGASNRHTGVPDRFTGSGSGTDFTLTISSVQAEDLADYYCEQTYRYPFTFGSGTKLEIK
notes: Rat hybridoma antibody; also called Wild Type
As for B6, in assay [1], the Kd was 1.3 nM. In addition, the EC50 in assay [2] is 3.35 nM; in assay [4] it was 3.4 nM. Moreover, the “CHO-hu α11 adhesion inhibition (IC50)” value in assay [3] was found to be 9.4 nM.
